# Measurements as given in IntAct's records for PubMed 36931259.
# B1: 14-3-3 protein sigma (Homo sapiens), P31947 (parent)
# chain: MERASLIQKAKLAEQAERYEDMAAFMKGAVEKGEELSCEERNLLSVAYKNVVGGQRAAWRVLSSIEQKSNEEGSEEKGPEVREYREKVETELQGVCDTVLGLLDSHLIKEAGDAESRVFYLKMKGDYYRYLAEVATGDDKKRIIDSARSAYQEAMDISKKEMPPTNPIRLGLALNFSVFHYEIANSPEEAISLAKTTFDEAMADLHTLSEDSYKDSTLIMQLLRDNLTLWTADNAGEEGGEAPQEPQS
# partner: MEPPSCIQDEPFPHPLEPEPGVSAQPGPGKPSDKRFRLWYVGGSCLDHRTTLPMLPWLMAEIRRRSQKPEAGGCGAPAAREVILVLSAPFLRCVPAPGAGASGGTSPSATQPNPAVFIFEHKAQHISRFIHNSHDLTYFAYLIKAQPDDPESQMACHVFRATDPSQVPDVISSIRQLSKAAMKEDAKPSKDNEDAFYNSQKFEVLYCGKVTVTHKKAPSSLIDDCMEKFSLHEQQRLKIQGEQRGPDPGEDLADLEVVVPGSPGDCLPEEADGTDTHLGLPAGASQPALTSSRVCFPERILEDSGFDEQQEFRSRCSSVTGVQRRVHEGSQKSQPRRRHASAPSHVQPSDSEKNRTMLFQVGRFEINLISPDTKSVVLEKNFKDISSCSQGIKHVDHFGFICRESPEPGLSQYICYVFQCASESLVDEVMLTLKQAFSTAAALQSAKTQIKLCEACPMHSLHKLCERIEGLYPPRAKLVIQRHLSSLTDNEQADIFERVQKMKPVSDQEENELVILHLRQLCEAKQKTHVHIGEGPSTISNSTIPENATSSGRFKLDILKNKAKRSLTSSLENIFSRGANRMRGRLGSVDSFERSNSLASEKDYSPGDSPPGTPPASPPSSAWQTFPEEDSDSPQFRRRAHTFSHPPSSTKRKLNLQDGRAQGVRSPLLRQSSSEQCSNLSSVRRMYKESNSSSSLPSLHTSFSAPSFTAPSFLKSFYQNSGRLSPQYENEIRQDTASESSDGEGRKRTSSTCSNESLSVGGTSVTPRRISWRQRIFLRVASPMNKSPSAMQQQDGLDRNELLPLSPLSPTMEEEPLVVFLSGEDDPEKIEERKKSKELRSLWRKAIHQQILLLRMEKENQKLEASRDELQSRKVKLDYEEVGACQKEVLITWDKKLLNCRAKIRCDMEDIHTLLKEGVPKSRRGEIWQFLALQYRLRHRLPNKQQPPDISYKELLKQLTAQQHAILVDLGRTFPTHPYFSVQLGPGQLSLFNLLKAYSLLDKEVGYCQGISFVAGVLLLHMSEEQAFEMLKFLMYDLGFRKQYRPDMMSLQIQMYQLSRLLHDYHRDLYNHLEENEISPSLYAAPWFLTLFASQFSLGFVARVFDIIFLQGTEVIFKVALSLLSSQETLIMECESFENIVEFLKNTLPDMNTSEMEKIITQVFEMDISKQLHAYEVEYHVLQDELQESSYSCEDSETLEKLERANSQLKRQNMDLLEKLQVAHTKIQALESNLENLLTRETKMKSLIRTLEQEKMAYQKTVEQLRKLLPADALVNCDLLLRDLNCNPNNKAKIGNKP
# B2: 14-3-3 protein sigma (Homo sapiens), P31947 (parent)
# chain: B1 chain
# partner: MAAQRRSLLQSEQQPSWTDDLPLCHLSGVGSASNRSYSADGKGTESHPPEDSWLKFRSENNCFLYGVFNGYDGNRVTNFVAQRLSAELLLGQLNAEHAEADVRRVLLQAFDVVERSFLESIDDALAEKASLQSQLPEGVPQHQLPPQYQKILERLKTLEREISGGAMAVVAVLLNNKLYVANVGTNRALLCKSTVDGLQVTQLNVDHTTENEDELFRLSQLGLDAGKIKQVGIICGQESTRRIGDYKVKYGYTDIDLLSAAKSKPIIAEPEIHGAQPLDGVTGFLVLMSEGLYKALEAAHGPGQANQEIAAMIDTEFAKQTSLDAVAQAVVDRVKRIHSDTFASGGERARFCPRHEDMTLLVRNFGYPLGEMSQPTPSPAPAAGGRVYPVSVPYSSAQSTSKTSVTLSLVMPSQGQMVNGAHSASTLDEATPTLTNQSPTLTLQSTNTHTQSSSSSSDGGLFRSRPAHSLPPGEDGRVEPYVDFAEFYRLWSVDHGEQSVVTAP
# B3: 14-3-3 protein sigma (Homo sapiens), P31947 (parent)
# chain: B1 chain
# partner: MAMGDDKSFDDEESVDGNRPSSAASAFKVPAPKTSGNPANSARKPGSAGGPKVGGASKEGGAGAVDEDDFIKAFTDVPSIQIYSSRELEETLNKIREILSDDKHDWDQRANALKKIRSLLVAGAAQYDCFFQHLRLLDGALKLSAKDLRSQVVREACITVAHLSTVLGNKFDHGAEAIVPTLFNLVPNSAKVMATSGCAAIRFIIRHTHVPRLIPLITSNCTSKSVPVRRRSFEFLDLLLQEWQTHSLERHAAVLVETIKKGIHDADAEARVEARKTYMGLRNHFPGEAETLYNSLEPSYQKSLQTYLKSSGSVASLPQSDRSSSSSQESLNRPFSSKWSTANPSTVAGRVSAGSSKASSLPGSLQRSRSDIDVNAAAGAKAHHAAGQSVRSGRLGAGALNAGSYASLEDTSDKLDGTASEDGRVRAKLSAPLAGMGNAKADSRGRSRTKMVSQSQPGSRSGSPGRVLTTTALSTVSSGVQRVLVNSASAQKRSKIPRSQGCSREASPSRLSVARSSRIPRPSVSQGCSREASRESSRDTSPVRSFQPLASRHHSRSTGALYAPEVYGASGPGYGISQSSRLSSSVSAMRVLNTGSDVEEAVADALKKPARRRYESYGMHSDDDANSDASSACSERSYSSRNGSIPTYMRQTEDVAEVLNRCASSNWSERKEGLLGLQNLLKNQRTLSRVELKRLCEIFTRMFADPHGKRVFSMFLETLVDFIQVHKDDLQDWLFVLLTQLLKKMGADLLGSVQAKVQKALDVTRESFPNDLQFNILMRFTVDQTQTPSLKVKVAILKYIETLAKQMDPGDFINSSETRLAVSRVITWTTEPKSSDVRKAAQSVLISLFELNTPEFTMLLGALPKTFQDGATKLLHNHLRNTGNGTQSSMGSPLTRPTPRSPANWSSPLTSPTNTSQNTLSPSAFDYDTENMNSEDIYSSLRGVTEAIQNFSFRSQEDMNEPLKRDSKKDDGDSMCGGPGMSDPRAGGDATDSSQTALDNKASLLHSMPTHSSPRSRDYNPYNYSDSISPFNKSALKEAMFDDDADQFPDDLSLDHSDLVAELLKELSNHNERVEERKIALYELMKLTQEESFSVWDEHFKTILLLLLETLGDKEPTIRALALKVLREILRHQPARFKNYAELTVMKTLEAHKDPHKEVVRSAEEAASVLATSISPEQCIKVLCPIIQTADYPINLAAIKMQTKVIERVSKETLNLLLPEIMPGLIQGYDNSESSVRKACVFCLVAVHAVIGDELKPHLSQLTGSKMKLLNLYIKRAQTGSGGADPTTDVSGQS
# Variants of: B1
# Conditions: with tbcd4_human TBC1D4, O60343
row,Variant,effect of a mutation on the interaction
1,MERASLIQKAKLAEQAERYEDMAAFMKGAVEKGEELSCEERNLLSVAYENVVGGQEAAWRVLSSIEQKSNEEGSEEKGPEVREYREKVETELQGVCDTVLGLLDSHLIKEAGDAESRVFYLKMKGDYYRYLAEVATGDDKKRIIDSARSAYQEAMDISKKEMPPTNPIRLGLALNFSDFHYEIANSPEEAISLAKTTFDEAMADLHTLSEDSYKDSTLIMQLLRDNLTLWTADNAGEEGGEAPQEPQS [K49E;R56E;V178D],decreasing interaction strength

# Variants of: B2
# Conditions: with tab1_human TAB1, Q15750
row,Variant,effect of a mutation on the interaction
1,MERASLIQKAKLAEQAERYEDMAAFMKGAVEKGEELSCEERNLLSVAYENVVGGQEAAWRVLSSIEQKSNEEGSEEKGPEVREYREKVETELQGVCDTVLGLLDSHLIKEAGDAESRVFYLKMKGDYYRYLAEVATGDDKKRIIDSARSAYQEAMDISKKEMPPTNPIRLGLALNFSDFHYEIANSPEEAISLAKTTFDEAMADLHTLSEDSYKDSTLIMQLLRDNLTLWTADNAGEEGGEAPQEPQS [K49E;R56E;V178D],decreasing interaction strength

# Variants of: B3
# Conditions: with clap2_human CLASP2, O75122
row,Variant,effect of a mutation on the interaction
1,MERASLIQKAKLAEQAERYEDMAAFMKGAVEKGEELSCEERNLLSVAYENVVGGQEAAWRVLSSIEQKSNEEGSEEKGPEVREYREKVETELQGVCDTVLGLLDSHLIKEAGDAESRVFYLKMKGDYYRYLAEVATGDDKKRIIDSARSAYQEAMDISKKEMPPTNPIRLGLALNFSDFHYEIANSPEEAISLAKTTFDEAMADLHTLSEDSYKDSTLIMQLLRDNLTLWTADNAGEEGGEAPQEPQS [K49E;R56E;V178D],decreasing interaction strength
